Results taken from the supplement of paper PMC10567573.
± gives the standard deviation.

Test: protein stability index of a GFP-peptide fusion (GPS, HEK-293T) (PSI 1-6); higher = more stable
[1] = treatment: DMSO, c terminus: a fixed tail appended
[2] = treatment: MLN4924 1 uM, 8 h, c terminus: a fixed tail appended
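Further: 24-mer peptide tiles fused after GFP, lentivirally expressed, FACS-sorted into six equal bins by GFP/DsRed ratio, decoded by Illumina sequencing, PSI is the read-weighted mean bin number.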

| Sequence | protein stability index [1] | protein stability index [2] | protein stability index (treatment: DMSO, c terminus: native) | protein stability index (treatment: MLN4924 1 uM, 8 h, c terminus: native) |
| --- | --- | --- | --- | --- |
| QKELKKAQMAKAAAEERALFTDRM [WEE1] | 4.69 ± 0.19 | 4.67 ± 0.16 | – | – |
| QKISLLHSCTCVLYTPSNEHFGIV [ALG2] | 2.55 ± 0.84 | 2.61 ± 0.8 | – | – |
| QKLETDAMFRLEHGEADRSTLKKA [YJU2B] | 5.22 ± 0.22 | 5.03 ± 0.14 | – | – |
| QKSPWCEARSLEHTLPVNRETLKR [ESR2] | 4.23 ± 0.16 | 4.41 ± 0.21 | – | – |
| QKTRLLEDSVSRLEKEIEVLERGD [PALM] | 4.96 ± 0.069 | 5.03 ± 0.27 | – | – |
| QLGTAGQGFSYSKSNGRGGSQAGG [MYOZ1] | 4.54 ± 0.2 | 4.93 ± 0.71 | – | – |
| QLHKPLAEGTPRSNHSAQDSAVEN [IKZF1] | 5.35 ± 0.35 | 5.39 ± 0.3 | – | – |
| QLLLIKALQEKLWNVAAPLYLKQS [INTS4] | 3.14 ± 0.31 | 2.89 ± 0.18 | – | – |
| QMVSAIVRTMQNTNDVETARCTAG [CTNNB1] | 2.87 ± 0.12 | 2.93 ± 0.3 | – | – |
| QNIQSWSNHSWNTQTWCTQSWNNQ [NANOGP8] | 2.53 ± 0.37 | 2.61 ± 0.24 | – | – |
| QPELPCAMAMGTPSTTERISTSGQ [PXN] | 4.72 ± 0.12 | 4.9 ± 0.17 | – | – |
| QPHLPLLSTLAGIRVMVHGRNHTP [SCNN1D] | 2.52 ± 0.24 | 2.62 ± 0.26 | – | – |
| QPSDRLMTEKQQEEAEWESINVLL [CEP70] | 4.38 ± 0.11 | 4.33 ± 0.12 | – | – |
| QQESESEIDSVPKTQSELASESEH [MIA2] | 5.44 ± 0.17 | 5.62 ± 0.15 | – | – |
| QQIGDAIRMIVRGTLGSCSSSSEC [PLK2] | 2.1 ± 0.23 | 2.08 ± 0.39 | – | – |
| QQLRRGRYVEFNLLYDRGTKFGLF [CPOX] | 2.52 ± 0.51 | 2.56 ± 0.36 | – | – |
| QRARKEREKEDYLHLKRQPKRRWL [RHOBTB2] | 4.05 ± 0.23 | 4.16 ± 0.23 | – | – |
| QRFRLDNLLNMAYGVKSPLSLIAR [ELAVL3] | 2.05 ± 0.14 | 2.19 ± 0.18 | – | – |
| QRQDPAAAQEGEDEGASAGQGPKP [GAGE1] | 5.62 ± 0.13 | 5.7 ± 0.14 | – | – |
| QRRSMVSPNFGFMGQLLQYESEIL [DUSP5] | 2.5 ± 0.29 | 2.45 ± 0.38 | – | – |
| QSIQQAMRYLRNHCLDQVGLFRKS [DLC1] | 2.73 ± 0.091 | 2.26 ± 0.28 | – | – |
| QSLKGHLRNNFQKQLLSNKELILD [ZC2HC1C] | 3.08 ± 0.3 | 3.17 ± 0.29 | – | – |
| QSVKMKDKLKIDLLPDGRHAVVEV [TAF7L] | 2.87 ± 0.32 | 3.06 ± 0.36 | – | – |

| Sequence | protein stability index [1] | protein stability index [2] | protein stability index (treatment: DMSO, c terminus: native) | protein stability index (treatment: MLN4924 1 uM, 8 h, c terminus: native) |
| --- | --- | --- | --- | --- |
| QTVPKRIPERLSIFCRDTQTVFQK [IQUB] | 2.56 ± 0.43 | 2.24 ± 0.31 | – | – |
| QVPVVDFQAELRQAFLAETPRGG [SNURF] | – | – | 3.04 ± 0.46 | 3.19 ± 0.36 |
| QVSQVKGAARLALLQGAGLDVERW [FCHSD1] | 2.89 ± 0.32 | 3.16 ± 0.49 | – | – |
| QWFAMLRAEQDSEVGPQEINKEEL [GMCL1] | 3.95 ± 0.43 | 3.81 ± 0.2 | – | – |
| QWILDKQDLLKERQKDLKFLSEEE [CCNC] | 4.43 ± 0.26 | 4.53 ± 0.097 | – | – |
| RAGGPPRPMSEPGAGAGSSLLDVA [SMAD6] | 4.39 ± 0.39 | 4.37 ± 0.39 | – | – |
| RCLVRCLLRREPAERLTATGILLH [TRIB3] | 2.38 ± 0.43 | 2.44 ± 0.26 | – | – |
| RDLINCCYVSRRLSQLSSHDPLWR [FBXO3] | 2.09 ± 0.28 | 2.31 ± 0.29 | – | – |
| RDNSPFDGPGGNLAHAFQPGPGIG [MMP1] | 4.05 ± 0.39 | 4.03 ± 0.17 | – | – |
| REQMEQMKQRIAEENIMKSNIDKK [FAM50A] | 5.08 ± 0.31 | 5.24 ± 0.11 | – | – |
| REVRQFQFTAWPDHGVPEHPTPFL [PTPRD] | 2.76 ± 0.24 | 2.97 ± 0.38 | – | – |
| RFDGLPAVLGFPGFSSGRHRWQVD [TRIM15] | 2.62 ± 0.12 | 2.54 ± 0.18 | – | – |
| RFSRQCVVDKDKRNQCRYCRLKKC [HNF4A] | 3.22 ± 0.46 | 3.5 ± 0.61 | – | – |
| RFVFADRERKKLVLENLEDSCVLT [TRIB3] | 3.18 ± 0.16 | 3.37 ± 0.17 | – | – |
| RGAPPPPPSRAPTAAPPPPPPSRP [WASL] | 5.11 ± 0.19 | 5.17 ± 0.2 | – | – |
| RGLLEYFKAYIKIYQGEDLPHPKS [ATL3] | 3.18 ± 0.84 | 2.56 ± 0.88 | – | – |
| RGPGASGEQPEPGEAAAGGAAEEA [ACBD3] | 5.54 ± 0.23 | 5.62 ± 0.15 | – | – |
| RHIHHLGNQLQLNQHCLDTAFNFF [BRF1] | 2.29 ± 0.23 | 2.3 ± 0.16 | – | – |
| RKRAVPCGACLTQLFFFHLFVGVD [OR3A1] | 2.82 ± 0.3 | 2.74 ± 0.45 | – | – |
| RLEKAVAAAYTFLQRNPKHELTAK [P3H4] | 2.32 ± 0.12 | 2.49 ± 0.29 | – | – |
| RLLQAQLQAQKEELQSLMHQPKGL [PBXIP1] | 2.91 ± 0.14 | 2.9 ± 0.26 | – | – |
| RLRASFSRKPSLKGNREDSARMSA [PLEKHN1] | 4.08 ± 0.21 | 4.21 ± 0.078 | – | – |
| RLSGAGPAEEAGPEGGLEEPDALD [FOXJ1] | 5.51 ± 0.31 | 5.59 ± 0.2 | – | – |

| Sequence | protein stability index [1] | protein stability index [2] | protein stability index (treatment: DMSO, c terminus: native) | protein stability index (treatment: MLN4924 1 uM, 8 h, c terminus: native) |
| --- | --- | --- | --- | --- |
| RLSSSLQGSAVTLKTSKMALSPSA [CDC14A] | 3.5 ± 0.38 | 3.65 ± 0.32 | – | – |
| RNGHLATVKLLVEEKADVLARGPL [RIPK4] | 3.1 ± 0.4 | 3.44 ± 0.19 | – | – |
| RNHGILMETHKELKPLLSPSSETT [LYSMD4] | 4.49 ± 0.14 | 4.62 ± 0.3 | – | – |
| RNKIIAATIENAQPILQIDNARLA [KRT16] | 3.35 ± 0.13 | 3.64 ± 0.14 | – | – |
| RNNANGVDLNRNFPDLNTYIYYNE [CPN1] | 3.17 ± 0.26 | 3.14 ± 0.28 | – | – |
| RNTGAYTSSGLATASFRTSKYLLE [TEKT4] | 3.1 ± 0.26 | 3.16 ± 0.22 | – | – |
| RPGGGRVKIESVKLDFKEKAQAKV [MAP2] | 4.06 ± 0.3 | 4.01 ± 0.25 | – | – |
| RQDLEDRYAEHVAATQALPQDSGT [C22orf31] | 5.4 ± 0.17 | 5.46 ± 0.3 | – | – |
| RQGPKEPPRKSGSFHSSGEKQKQP [PBXIP1] | 4.86 ± 0.27 | 5.17 ± 0.15 | – | – |
| RQLAYSTVGTPDYIAPEVFMQTGY [STK38L] | 3.06 ± 0.46 | 3.29 ± 0.42 | – | – |
| RRCGELKRKLGLTALVGLRQNLSK [TPD52L3] | 2.41 ± 0.34 | 2.57 ± 0.16 | – | – |
| RRCTNIRPGETGMDVTSRCTLGDP [KLHL20] | 3.99 ± 0.24 | 4.13 ± 0.21 | – | – |
| RRGRSPKGEFKDEEETVTTKHIHI [CLINT1] | 4.78 ± 0.14 | 4.73 ± 0.26 | – | – |
| RRLAQEPLGLEVDQFLEDVRLQER [NOP53] | 4.5 ± 0.16 | 4.54 ± 0.13 | – | – |
| RRSSLVITTKIFWGGKAETERGLS [KCNAB2] | 2.09 ± 0.42 | 2.15 ± 0.29 | – | – |
| RSETFLEVWGNALLRPPVAAFVRA [DNAAF3] | 2.22 ± 0.21 | 2.34 ± 0.13 | – | – |
| RSFKEELLCAVCYDPFRDAVTLRC [TRIM35] | 2.58 ± 0.63 | 2.61 ± 0.61 | – | – |
| RSFSDKQKISLLHSCTCVLYTPSN [ALG2] | 2.17 ± 0.28 | 2.1 ± 0.32 | – | – |
| RSRIEALELLGASFANDRENYDII [FEM1B] | 3.42 ± 0.27 | 3.52 ± 0.14 | – | – |
| RSTCNVVQDEFLDTPCTNRGLPLL [DLC1] | 3.21 ± 0.27 | 3.21 ± 0.42 | – | – |
| RSVEEAPVYSVPQLLSAMGSLCSL [SCNN1D] | 2.44 ± 0.16 | 2.59 ± 0.4 | – | – |
| RTIRHVYCKTSDGRVVPESQCQME [ADAMTSL2] | 4.08 ± 0.16 | 4.09 ± 0.31 | – | – |
| RTLWSGLPATLVMTVPATAIYFTA [SLC25A39] | 3.07 ± 0.42 | 3.1 ± 0.68 | – | – |

| Sequence | protein stability index [1] | protein stability index [2] | protein stability index (treatment: DMSO, c terminus: native) | protein stability index (treatment: MLN4924 1 uM, 8 h, c terminus: native) |
| --- | --- | --- | --- | --- |
| RVAHEPVAPPEDKESESEAKVDGE [CDS2] | 5.47 ± 0.21 | 5.63 ± 0.27 | – | – |
| RVHAGSKAALAALCPGDLIQAING [PDLIM4] | 2.95 ± 0.15 | 3.03 ± 0.12 | – | – |
| RVKREFEPASAREAPASVVPFVRV [USP39] | 3.33 ± 0.57 | 3.5 ± 0.24 | – | – |
| RWKRRRSYSREHEGRLRYPSRREP [CLK3] | 3.86 ± 0.39 | 4.14 ± 0.36 | – | – |
| RWSRVGGQRFYSRVLSPLHRGPSG | 2.9 ± 0.27 | 2.72 ± 0.42 | – | – |
| RYEPDSKAFGVGVAYRSLGRFEQL [FSD1] | 2.48 ± 0.38 | 2.63 ± 0.33 | – | – |
| SAEQLKAQAIDFINRCSVLRQLGC [SPOPL] | 2.21 ± 0.33 | 2.51 ± 0.28 | – | – |
| SAFTAAHELGHVFNMLHDNSKPCI [ADAMTS4] | 2.93 ± 0.094 | 3 ± 0.19 | – | – |
| SAGIAKLEEGDELQLAIPRENAQI [TNFSF13B] | 5.08 ± 0.25 | 4.97 ± 0.23 | – | – |
| SAIVLGDLKLRKFVFSTEERTQLR [TRIB1] | 2.77 ± 0.48 | 2.92 ± 0.29 | – | – |
| SALFAGNEWRRPIIQFVESGDDKN [TRIM29] | 4.37 ± 0.23 | 4.13 ± 0.25 | – | – |
| SASHYKLQVIKALKSSGLCESLTY [M1AP] | 2.03 ± 0.41 | 2.25 ± 0.59 | – | – |
| SCKEGLSPRGPAPGEEKFENLEGV [ZNF263] | 5.37 ± 0.16 | 5.23 ± 0.36 | – | – |
| SDDLERTIEERVNILFDFVKKKKE [EIF5] | 3.97 ± 0.19 | 4.2 ± 0.32 | – | – |
| SDENGGTYVSPPGNEEEESKIFTT [DDIT3] | 5.53 ± 0.36 | 5.49 ± 0.31 | – | – |
| SEAKADKILAEAAKLVPMGFTTAT [RAD51] | 3.93 ± 0.25 | 3.93 ± 0.13 | – | – |
| SEASKAFQMEKIEHGYENMNHFTV [TRIM55] | 3.29 ± 0.21 | 3.38 ± 0.28 | – | – |
| SEAWEYFHLAPARAGHHPNQYATC [ZBED2] | 2.59 ± 0.26 | 2.58 ± 0.23 | – | – |
| SEDMWGDEDFTFGAYQPTVVSSEG [FBF1] | 4.53 ± 0.23 | 4.84 ± 0.23 | – | – |
| SFAILRIIRLVRVFRIFKLSRHSK [KCNA4] | 2.2 ± 0.4 | 2.44 ± 0.15 | – | – |
